We go through four molecules from patent US5763590A (Vertex Pharmaceuticals, Inc., priority 1994, dated 1998).

For orientation: Ki means the equilibrium dissociation constant of an inhibitor or competing ligand from its target.

One series concerns the target T1, hFKBP52 (Homo sapiens, UniProt Q02790).
T1 construct: The hFKBP52 open reading frame (ORF) was expressed in E. coli with a vector (pQE8, Qiagen Inc.); histidine tag (pQE8) (N, cleaved yes); Factor Xa cleavage site (Ile-Glu-Gly-Arg) (N, cleaved yes); made in house; host or cells: E. coli XA90
T1 sequence (Q02790 1-459): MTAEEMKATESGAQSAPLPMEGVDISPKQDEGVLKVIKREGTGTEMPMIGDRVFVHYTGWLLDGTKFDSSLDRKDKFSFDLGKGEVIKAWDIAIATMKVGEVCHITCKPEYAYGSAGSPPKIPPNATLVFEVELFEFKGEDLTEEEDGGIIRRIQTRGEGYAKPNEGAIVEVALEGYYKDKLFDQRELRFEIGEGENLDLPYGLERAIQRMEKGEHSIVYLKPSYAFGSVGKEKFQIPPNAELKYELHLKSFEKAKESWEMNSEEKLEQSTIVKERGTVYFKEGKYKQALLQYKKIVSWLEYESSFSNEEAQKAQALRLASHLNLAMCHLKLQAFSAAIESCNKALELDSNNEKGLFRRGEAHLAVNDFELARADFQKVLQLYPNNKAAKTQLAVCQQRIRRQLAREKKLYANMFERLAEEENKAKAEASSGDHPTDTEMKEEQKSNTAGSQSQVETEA
Description: Inhibition of peptidyl-prolyl cis-trans isomerase (PPIase) activity of hFKBP52. Type of series: biochemical.

The conditions of series [1]: cited from earlier work.
Series [2] is described as follows: PPIase catalysis of the isomerization of tetrapeptide substrates (chymotrypsin-coupled assay). Type of series: biochemical. The method, then:
As described in detail in Example 2, the assay of Harrison and Stein (Harrison, R. K. and R. L. Stein, Biochemistry 29:3813-3816 (1990)) can be used to measure peptidyl prolyl cis-trans isomerization (PPIase) activity of FKBP52.
The peptidyl-prolyl isomerization rate was determined by coupling isomerization of a prolyl-containing peptide to trans substrate hydrolysis by chymotrypsin (Fisher, G., et al., Nature 337:476-478 (1989)). The assay was performed according to Harrison and Stein (Biochem., 29:3813-3816 ([…]) with modifications described by Park S. T., et al., J. Biol. Chem. 267:3316-3324 (1992). The tetrapeptide substrate succinyl-Ala-P1-Pro-Phe-p-nitroanilide, where P1=Leu, was used to determine specific activity and inhibition constants, and a series of peptide substrates with related structures (P1=Phe, Val, Ala, Gly, Glu or Lys) was used to determine substrate specificity. Protein concentrations of rhFKBP52 stock solutions were determined by a Coomassie Blue binding assay (Bradford, M., Anal. Biochem., 72:248-254 (1976)). FKBP52 (60 nM final) was added to a reaction mixture containing substrate (27 μM final) in 0.1M Tris-HCl, pH 7.8 at 15° C., and the solution was incubated in a 2 ml cuvette for 5 min at 15° C. (950 μl final) before adding chymotrypsin (100 μg ml^-1 final) to start reaction. For measurement of substrate specificity, the final FKBP52 concentration was adjusted so the Kobs was at least four-fold higher than knon-enz. Inhibition data were fit to an equation for tight-binding competitive inhibitors using KineTic™ software (BioKin, Ltd.) running on a Macintosh IIcx computer.

Where two headings read alike, the source gives them in different places.

Description for hFKBP52: The peptidyl-prolyl isomerization rate was determined by coupling isomerization of a prolyl-containing peptide to trans substrate hydrolysis by chymotrypsin (Fisher, G., et al., Nature 337:476-478 (1989)). The assay was performed according to Harrison and Stein (Biochem., 29:3813-3816 (1980) with modifications described by Park S. T., et al., J. Biol. Chem. 267:3316-3324 (1992). The tetrapeptide substrate succinyl-Ala-P1-Pro-Phe-p-nitroanilide, where P1=Leu, was used to determine specific activity and inhibition constants, and a series of peptide substrates with related structures (P1=Phe, Val, Ala, Gly, Glu or Lys) was used to determine substrate specificity. Protein concentrations of rhFKBP52 stock solutions were determined by a Coomassie Blue binding assay (Bradford, M., Anal. Biochem., 72:248-254 (1976)). FKBP52 (60 nM final) was added to a reaction mixture containing substrate (27 μM final) in 0.1M Tris-HCl, pH 7.8 at 15° C., and the solution was incubated in a 2 ml cuvette for 5 min at 15° C. […] For measurement of substrate specificity, the final FKBP52 concentration was adjusted so the Kobs was at least four-fold higher than knon-enz. Inhibition data were fit to an equation for tight-binding competitive inhibitors using KineTic™ software (BioKin, Ltd.) running on a Macintosh IIcx computer.

Take “recombinant human FKBP52 (Mr 52,000 FK506 binding protein) (enzyme)”: the Specific activity at 15° C. (PPIase, chymotrypsin-coupled assay) came out at 39000 M⁻¹ s⁻¹ with Suc-Ala-Val-Pro-Phe-pNA, 390000 M⁻¹ s⁻¹ with Suc-Ala-Leu-Pro-Phe-pNA, 73000 M⁻¹ s⁻¹ in the series with Suc-Ala-Phe-Pro-Phe-pNA and 26000 M⁻¹ s⁻¹ with Suc-Ala-Ala-Pro-Phe-pNA.
As to `CO[C@H]1C[C@@H]2CC[C@@H](C)[C@@](O)(O2)C(=O)C(=O)N2CCCC[C@H]2C(=O)O[C@H]([C@H](C)C[C@@H]2CC[C@@H](O)[C@H](OC)C2)CC(=O)[C@H](C)/C=C(\C)[C@@H](O)[C@@H](OC)C(=O)[C@H](C)C[C@H](C)/C=C/C=C/C=C/1C` [rapamycin], on hFKBP52, the inhibitory constant (Ki) was found to be 8 nM.
Turning to “hFKBP12: recombinant human FK506 binding protein of Mr about 11,800, used as comparator PPIase”, the “Specific activity at 15° C.” value in series [1] (Substrate P1 = Ala, data from Park et al. 1992) is 310000 M⁻¹ s⁻¹; in series [1] (Substrate P1 = Leu (Suc-Ala-Leu-Pro-Phe-pNA), data from Park et al. 1992, listed as FKBP12) it was 4.3e+06 M⁻¹ s⁻¹; in series [1] (Substrate P1 = Leu (Suc-Ala-Leu-Pro-Phe-pNA), data from Park et al. 1992) it was 4.3e+06 M⁻¹ s⁻¹; in series [1] (Substrate P1 = Phe, data from Park et al. 1992), 2e+06 M⁻¹ s⁻¹; in series [1] (Substrate P1 = Val, data from Park et al. 1992), 900000 M⁻¹ s⁻¹.

B1: hFKBP52: Mr 52,000 FK506 binding protein; recombinant human form expressed in E. coli, 459 residues (SEQ ID NO: 26) (protein)
chain: T1 sequence (Q02790 1-459)
In the case of B1, the “Specific activity at 15° C.” value in series [2] (Substrate P1 = Ala) worked out at 26000 M⁻¹ s⁻¹; in series [2] (Substrate P1 = Leu (Suc-Ala-Leu-Pro-Phe-pNA)), 390000 M⁻¹ s⁻¹; in series [2] (Substrate P1 = Leu (Suc-Ala-Leu-Pro-Phe-pNA), listed as FKBP52) it was 390000 M⁻¹ s⁻¹; in series [2] (Substrate P1 = Phe) it was 73000 M⁻¹ s⁻¹; in series [2] (Substrate P1 = Val), 39000 M⁻¹ s⁻¹. Moreover, in series [2] (substrate Suc-Ala-Leu-Pro-Phe-pNA, 15° C.), the “Specific activity relative to recombinant human FKBP12 (rhFKBP12)” value is reported as “approximately 10%”.
